B1: MCvar1 PfEMP1 CIDRα2.8 domain (residues 576-745, C626S) [Plasmodium falciparum] / human CD36 ectodomain (residues 35-439) with C-terminal BAP tag, biotinylated [modified: biotin on the BAP tag (in vitro, BirA ligase); biotin on the BAP tag … (parent complex)
chain 1: EDKIMSYNAFFWMWVHDMLIDSIKWRDEHGRCINKDKGKTCIKGCNKKCISFQKWVEQKKTEWGKIKDHFRKQKDIPKDWTHDDFLQTLLMKDLLLEIIQDTYGDANEIKRIEALLEQAGVGGIDFAALAGLYTKGFVAEKDTTIDKLLQHEQKEADKCLKTHTDDTCPP
chain 2: QKTIKKQVVLEEGTIAFKNWVKTGTEVYRQFWIFDVQNPQEVMMNSSNIQVKQRGPYTYRVRFLAKENVTQDAEDNTVSFLQPNGAIFEPSLSVGTEADNFTVLNLAVAAASHIYQNQFVQMILNSLINKSKSSMFQVRTLRELLWGYRDPFLSLVPYPVTTTVGLFYPYNNTADGVYKVFNGKDNISKVAIIDTYKGKRNLSYWESHCDMINGTDAASFPPFVEKSQVLQFFSSDICRSIYAVFESDVNLKGIPVYRFVLPSKAFASPVENPDNYCFCTEKIISKNCTSYGVLDISKCKEGRPVYISLPHFLYASPDVSEPIDGLNPNEEEHRTYLDIEPITGFTLQFAKRLQVNLLVKPSEKIQVLKNLKRNYIVPILWLNETGTIGDEKANMFRSQVTGKIN

Variants of: B1
Assay: SPR; plateau of the top sensorgram (highest analyte concentration of the series); concentrations not given; parent: 62; read off a plot

| Variant | response [RU] |
| --- | --- |
| chain 1 D75A | ~20 |
